Experimental data taken from US20140072613A1 (published 2014).

Tests used:
Experiment in all cases: cell-based or functional assay
[1] = target: T1, GCK(h) (human, UniProt Q12851 1-820, limits assumed)
T1 sequence (looked up): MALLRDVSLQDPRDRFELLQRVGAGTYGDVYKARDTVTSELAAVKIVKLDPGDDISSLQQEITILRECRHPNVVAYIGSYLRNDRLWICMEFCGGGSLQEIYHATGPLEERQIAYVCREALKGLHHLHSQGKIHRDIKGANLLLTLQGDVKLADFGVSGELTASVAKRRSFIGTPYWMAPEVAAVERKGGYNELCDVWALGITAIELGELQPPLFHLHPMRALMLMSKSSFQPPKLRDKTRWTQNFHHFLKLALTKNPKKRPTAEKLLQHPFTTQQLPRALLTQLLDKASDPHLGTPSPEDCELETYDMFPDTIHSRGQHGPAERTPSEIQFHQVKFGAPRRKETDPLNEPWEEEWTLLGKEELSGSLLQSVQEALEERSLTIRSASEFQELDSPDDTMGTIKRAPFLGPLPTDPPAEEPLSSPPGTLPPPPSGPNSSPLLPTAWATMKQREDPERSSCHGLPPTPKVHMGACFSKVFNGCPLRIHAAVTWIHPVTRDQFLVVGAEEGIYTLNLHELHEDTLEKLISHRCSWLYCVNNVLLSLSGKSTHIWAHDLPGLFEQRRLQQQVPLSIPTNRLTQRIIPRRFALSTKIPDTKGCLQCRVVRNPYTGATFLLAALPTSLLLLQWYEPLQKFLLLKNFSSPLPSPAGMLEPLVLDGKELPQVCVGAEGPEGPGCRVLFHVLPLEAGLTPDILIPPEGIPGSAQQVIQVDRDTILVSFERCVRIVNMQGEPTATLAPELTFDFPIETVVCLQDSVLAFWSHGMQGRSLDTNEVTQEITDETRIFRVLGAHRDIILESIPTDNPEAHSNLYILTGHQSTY

[2] = target: HIPK2(h) (human, UniProt Q9H2X6 165-564, limits assumed)
[3] = target: IR(h), activated (human, UniProt P06213 1005-1310, limits assumed)
[4] = target: IRAK1(h) (human, UniProt P51617 194-712, limits assumed)
[5] = target: LOK(h) (human, UniProt O94804 1-348, limits assumed)
[6] = target: MAPK1(h) (human, UniProt P28482 1-360, limits assumed)
[7] = target: T2, MRCKβ(h) (human, UniProt Q9Y5S2 1-473, limits assumed)
T2 sequence (looked up): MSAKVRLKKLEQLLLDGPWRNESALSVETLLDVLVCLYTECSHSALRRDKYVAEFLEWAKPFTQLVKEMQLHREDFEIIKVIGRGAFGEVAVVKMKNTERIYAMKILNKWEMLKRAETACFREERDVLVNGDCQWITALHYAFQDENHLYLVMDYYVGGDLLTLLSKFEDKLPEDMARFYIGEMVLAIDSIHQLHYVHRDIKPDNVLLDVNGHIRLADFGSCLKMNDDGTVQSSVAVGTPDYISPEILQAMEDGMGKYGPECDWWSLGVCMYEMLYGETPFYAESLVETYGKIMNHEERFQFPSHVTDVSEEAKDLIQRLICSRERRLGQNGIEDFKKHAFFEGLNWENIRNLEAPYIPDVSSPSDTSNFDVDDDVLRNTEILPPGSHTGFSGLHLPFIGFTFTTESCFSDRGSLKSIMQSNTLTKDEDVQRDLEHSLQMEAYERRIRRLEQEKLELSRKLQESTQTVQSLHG

[8] = target: T3, PKD2(h) (human, UniProt Q9BZL6 1-878)
T3 sequence (looked up): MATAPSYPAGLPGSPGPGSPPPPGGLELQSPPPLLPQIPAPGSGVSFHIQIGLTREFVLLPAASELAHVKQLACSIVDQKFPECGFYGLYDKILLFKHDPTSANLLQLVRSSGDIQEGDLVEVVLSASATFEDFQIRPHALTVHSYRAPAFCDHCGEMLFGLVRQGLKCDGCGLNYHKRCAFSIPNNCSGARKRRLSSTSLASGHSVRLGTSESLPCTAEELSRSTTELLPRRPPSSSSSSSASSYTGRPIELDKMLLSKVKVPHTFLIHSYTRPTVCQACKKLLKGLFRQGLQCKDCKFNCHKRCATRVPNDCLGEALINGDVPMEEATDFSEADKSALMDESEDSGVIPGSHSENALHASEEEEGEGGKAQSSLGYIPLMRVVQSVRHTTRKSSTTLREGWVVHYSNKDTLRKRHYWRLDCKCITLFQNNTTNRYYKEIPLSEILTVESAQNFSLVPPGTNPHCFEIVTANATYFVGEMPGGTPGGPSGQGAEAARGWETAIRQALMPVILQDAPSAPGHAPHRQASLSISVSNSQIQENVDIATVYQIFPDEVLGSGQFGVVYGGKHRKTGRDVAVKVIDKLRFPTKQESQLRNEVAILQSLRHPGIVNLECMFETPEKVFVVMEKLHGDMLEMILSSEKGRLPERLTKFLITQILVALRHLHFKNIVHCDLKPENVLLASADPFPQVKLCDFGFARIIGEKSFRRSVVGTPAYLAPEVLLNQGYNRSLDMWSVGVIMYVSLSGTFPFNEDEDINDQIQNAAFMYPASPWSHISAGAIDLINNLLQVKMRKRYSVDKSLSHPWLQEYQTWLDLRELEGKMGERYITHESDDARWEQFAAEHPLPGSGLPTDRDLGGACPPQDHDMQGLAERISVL

[9] = target: PTK5(h) (human, UniProt P42685 1-505, limits assumed)
[10] = target: SAPK2a(h) (human, UniProt Q16539 1-360)
[11] = target: Src(1-530)(h) (human, UniProt P12931 1-530)
[12] = target: WNK2(h) (human, UniProt Q9Y3S1 166-489, limits assumed)
[13] = target: EGFR(L861Q)(h) (human, UniProt P00533 696-1210, limits assumed)

KAFAKLAARLYRKALARQLGVAA [MMI-0400] was tested. Which “% activity, 100 µM” value [1] did it give?
Its value is 66%.

What about the “% activity, 100 µM” value [2] of the same binder?
The value was 90%.

What about the “% activity, 100 µM” value [3] of the same binder?
Its value is 59%.

And the “% activity, 100 µM” value [4]?
The value was 93%.

What about the “% activity, 100 µM” value [5] of the same binder?
The value was 18%.

What about the “% activity, 100 µM” value [6] of the same binder?
Its value is 100%.

And the “% activity, 100 µM” value [7]?
The value was 71%.

What about the “% activity, 100 µM” value [8] of the same binder?
Its value is 25%.

What about the “% activity, 100 µM” value [9] of the same binder?
The value was 129%.

And the “% activity, 100 µM” value [10]?
The value was 85%.

And the “% activity, 100 µM” value [11]?
The value was 19%.

And the “% activity, 100 µM” value [12]?
Its value is 54%.

And the “% activity, 100 µM” value [13]?
The value was 22%.

FAKLAARLYRKALARQLGVAA [MMI-0300] was tested. Which “% activity, 100 µM” value [1] did it give?
The value was 70%.

What about the “% activity, 100 µM” value [2] of the same binder?
The value was 73%.

And the “% activity, 100 µM” value [3]?
Its value is 79%.

And the “% activity, 100 µM” value [4]?
The value was 95%.

And the “% activity, 100 µM” value [5]?
The value was 37%.

And the “% activity, 100 µM” value [6]?
The value was 107%.

And the “% activity, 100 µM” value [7]?
Its value is 83%.

And the “% activity, 100 µM” value [8]?
The value was 33%.

And the “% activity, 100 µM” value [9]?
The value was 132%.

What about the “% activity, 100 µM” value [10] of the same binder?
The value was 90%.

What about the “% activity, 100 µM” value [11] of the same binder?
The value was 23%.

What about the “% activity, 100 µM” value [12] of the same binder?
Its value is 64%.

What about the “% activity, 100 µM” value [13] of the same binder?
Its value is 25%.
